Residue numbers refer to the chain shown, from its start. In names and notes the source's numbering stands.
T1: EsCas13d, nuclease-dead (Eubacterium siraeum, UniProt B0MS50, R295A;H300A;R849A;H854A)
T1 sequence: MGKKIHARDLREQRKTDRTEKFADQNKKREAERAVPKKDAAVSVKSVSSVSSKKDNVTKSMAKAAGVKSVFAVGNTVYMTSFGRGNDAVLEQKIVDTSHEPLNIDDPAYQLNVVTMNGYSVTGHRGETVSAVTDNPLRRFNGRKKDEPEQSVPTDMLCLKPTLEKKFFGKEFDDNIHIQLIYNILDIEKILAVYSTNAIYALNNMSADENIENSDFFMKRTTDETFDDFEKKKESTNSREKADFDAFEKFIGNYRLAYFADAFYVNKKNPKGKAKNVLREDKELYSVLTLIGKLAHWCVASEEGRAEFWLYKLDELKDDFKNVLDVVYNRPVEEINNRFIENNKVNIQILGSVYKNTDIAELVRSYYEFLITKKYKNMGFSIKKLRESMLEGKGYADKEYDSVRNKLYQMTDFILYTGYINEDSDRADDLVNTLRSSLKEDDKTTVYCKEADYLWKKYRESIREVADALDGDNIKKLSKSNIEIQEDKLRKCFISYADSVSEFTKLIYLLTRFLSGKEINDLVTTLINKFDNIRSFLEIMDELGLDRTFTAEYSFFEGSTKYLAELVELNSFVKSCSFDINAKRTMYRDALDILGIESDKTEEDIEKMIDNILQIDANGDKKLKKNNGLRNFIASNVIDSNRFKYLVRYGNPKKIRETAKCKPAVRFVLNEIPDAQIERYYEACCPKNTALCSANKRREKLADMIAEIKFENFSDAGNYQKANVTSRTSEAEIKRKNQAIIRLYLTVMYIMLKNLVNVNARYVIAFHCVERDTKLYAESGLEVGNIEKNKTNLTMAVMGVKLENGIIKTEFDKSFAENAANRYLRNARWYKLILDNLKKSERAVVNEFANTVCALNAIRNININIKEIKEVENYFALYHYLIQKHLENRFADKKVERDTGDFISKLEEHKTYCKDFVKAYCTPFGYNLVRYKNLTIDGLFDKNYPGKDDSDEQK

B1: target 2 MT 5'PFS CUU 3'PFS UUC (mixed)
RNA 1: CACCCGUGCAAAAUUGCAGGGGUCUAAAACCUUCUCCAAAUUGUUUCAUCCU
RNA 2: GGGAAUGGAUCCACAUCUACGAAUUCCUUAGGAUGAAACAAUUUGGAGAAGUUCAGAUCGGAAGAGCACACGU
B2: target 2 MT 5'PFS AUG 3'PFS UUC (mixed)
RNA 1: B1 RNA 1
RNA 2: B1 RNA 2 with C27A, U29G
B3: target 2 MT 5'PFS UUU 3'PFS UGC (mixed)
RNA 1: B1 RNA 1
RNA 2: B1 RNA 2 with C27U, U53G
B4: target 2 MT 5'PFS AAA 3'PFS CAG (mixed)
RNA 1: B1 RNA 1
RNA 2: B1 RNA 2 with C27A, U28A, U29A, U52C, U53A, C54G
B5: target 2 MT 5'PFS GGA 3'PFS UGC (mixed)
RNA 1: B1 RNA 1
RNA 2: B1 RNA 2 with C27G, U28G, U29A, U53G
B6: target 2 MT 5'PFS AAA 3'PFS CAC (mixed)
RNA 1: B1 RNA 1
RNA 2: B1 RNA 2 with C27A, U28A, U29A, U52C, U53A
B7: target 2 MT 5'PFS UUU 3'PFS UGU (mixed)
RNA 1: B1 RNA 1
RNA 2: B1 RNA 2 with C27U, U53G, C54U
B8: target 2 MT 5'PFS GAC 3'PFS AAC (mixed)
RNA 1: B1 RNA 1
RNA 2: B1 RNA 2 with C27G, U28A, U29C, U52A, U53A
B9: target 2 MT 5'PFS UAC 3'PFS ACU (mixed)
RNA 1: B1 RNA 1
RNA 2: B1 RNA 2 with C27U, U28A, U29C, U52A, U53C, C54U
B10: target 2 MT 5'PFS GAC 3'PFS AAA (mixed)
RNA 1: B1 RNA 1
RNA 2: B1 RNA 2 with C27G, U28A, U29C, U52A, U53A, C54A
B11: target 1 insA 3' of 7,insG 3' of 2 (mixed)
RNA 1: CACCCGUGCAAAAAUGCAGGGGUCUAAAACUGAGCGGAUAACCUCUCUAUGG
RNA 2: GGGAAUGGAUCCACAUCUACGAAUUCGUACCAUAGAGAGGUUAUCACGCUCGACCGAGAUCGGAAGAGCACACGU
B12: target 2 MT 5'PFS GAC 3'PFS AAG (mixed)
RNA 1: B1 RNA 1
RNA 2: B1 RNA 2 with C27G, U28A, U29C, U52A, U53A, C54G
B13: target 2 MT 5'PFS AUA 3'PFS AUU (mixed)
RNA 1: B1 RNA 1
RNA 2: B1 RNA 2 with C27A, U29A, U52A, C54U
B14: target 2 MT 5'PFS AAU 3'PFS UAU (mixed)
RNA 1: B1 RNA 1
RNA 2: B1 RNA 2 with C27A, U28A, U53A, C54U
B15: target 2 MT 5'PFS AUA 3'PFS AUA (mixed)
RNA 1: B1 RNA 1
RNA 2: B1 RNA 2 with C27A, U29A, U52A, C54A
B16: target 2 MT 5'PFS AUA 3'PFS AUC (mixed)
RNA 1: B1 RNA 1
RNA 2: B1 RNA 2 with C27A, U29A, U52A
B17: target 2 MT 5'PFS AUA 3'PFS AUG (mixed)
RNA 1: B1 RNA 1
RNA 2: B1 RNA 2 with C27A, U29A, U52A, C54G
B18: target 2 MT 5'PFS GAC 3'PFS AAU (mixed)
RNA 1: B1 RNA 1
RNA 2: B1 RNA 2 with C27G, U28A, U29C, U52A, U53A, C54U
B19: target 2 MT 5'PFS AAU 3'PFS UAC (mixed)
RNA 1: B1 RNA 1
RNA 2: B1 RNA 2 with C27A, U28A, U53A
B20: target 2 MT 5'PFS UCA 3'PFS AGA (mixed)
RNA 1: B1 RNA 1
RNA 2: B1 RNA 2 with C27U, U28C, U29A, U52A, U53G, C54A
B21: target 2 MT 5'PFS UCA 3'PFS AGC (mixed)
RNA 1: B1 RNA 1
RNA 2: B1 RNA 2 with C27U, U28C, U29A, U52A, U53G
B22: target 1 insU 3' of 12,insG 3' of 1 (mixed)
RNA 1: B11 RNA 1
RNA 2: B11 RNA 2 with A43U, U44A, C45U, A46C, G52A, A53G
B23: target 2 MT 5'PFS AGG 3'PFS CAG (mixed)
RNA 1: B1 RNA 1
RNA 2: B1 RNA 2 with C27A, U28G, U29G, U52C, U53A, C54G
B24: target 2 MT 5'PFS UCA 3'PFS AGG (mixed)
RNA 1: B1 RNA 1
RNA 2: B1 RNA 2 with C27U, U28C, U29A, U52A, U53G, C54G
B25: target 2 MT 5'PFS GUU 3'PFS UCA (mixed)
RNA 1: B1 RNA 1
RNA 2: B1 RNA 2 with C27G, U53C, C54A
B26: target 2 MT 5'PFS GGU 3'PFS ACU (mixed)
RNA 1: B1 RNA 1
RNA 2: B1 RNA 2 with C27G, U28G, U52A, U53C, C54U
B27: target 2 MT 5'PFS GUU 3'PFS UCC (mixed)
RNA 1: B1 RNA 1
RNA 2: B1 RNA 2 with C27G, U53C
B28: target 2 MT 5'PFS GUU 3'PFS UCU (mixed)
RNA 1: B1 RNA 1
RNA 2: B1 RNA 2 with C27G, U53C, C54U
B29: target 2 MT 5'PFS UGG 3'PFS CAG (mixed)
RNA 1: B1 RNA 1
RNA 2: B1 RNA 2 with C27U, U28G, U29G, U52C, U53A, C54G
B30: target 2 MT 5'PFS GGU 3'PFS ACA (mixed)
RNA 1: B1 RNA 1
RNA 2: B1 RNA 2 with C27G, U28G, U52A, U53C, C54A
B31: target 2 MT 5'PFS GGU 3'PFS ACG (mixed)
RNA 1: B1 RNA 1
RNA 2: B1 RNA 2 with C27G, U28G, U52A, U53C, C54G
B32: target 2 MT 5'PFS UGG 3'PFS CAA (mixed)
RNA 1: B1 RNA 1
RNA 2: B1 RNA 2 with C27U, U28G, U29G, U52C, U53A, C54A
B33: target 1 G5U,C21A (mixed)
RNA 1: B11 RNA 1
RNA 2: GGGAAUGGAUCCACAUCUACGAAUUCGUACAAUAGAGAGGUUAUCCUCUCACCGAGAUCGGAAGAGCACACGU
B34: target 2 MT 5'PFS CUC 3'PFS AAC (mixed)
RNA 1: B1 RNA 1
RNA 2: B1 RNA 2 with U29C, U52A, U53A
B35: target 2 MT 5'PFS CUC 3'PFS AAA (mixed)
RNA 1: B1 RNA 1
RNA 2: B1 RNA 2 with U29C, U52A, U53A, C54A
B36: target 2 MT 5'PFS UAU 3'PFS GAA (mixed)
RNA 1: B1 RNA 1
RNA 2: B1 RNA 2 with C27U, U28A, U52G, U53A, C54A
B37: target 2 MT 5'PFS CUC 3'PFS AAG (mixed)
RNA 1: B1 RNA 1
RNA 2: B1 RNA 2 with U29C, U52A, U53A, C54G
B38: target 2 MT 5'PFS ACC 3'PFS CAA (mixed)
RNA 1: B1 RNA 1
RNA 2: B1 RNA 2 with C27A, U28C, U29C, U52C, U53A, C54A

Each binder was assayed against T1, EsCas13d, nuclease-dead (assay: crRNA (strand 1, pre-loaded); Mg2+; 40 mM Tris-HCl pH 7.5, 150 mM NaCl, 6 mM MgCl2, 1 mM DTT, 0.1% Tween-20, 0.2 mg/ml BSA; 25 C; 10 min per concentration, then washed). Details: tags: His6-TwinStrep-SUMO cleaved; N-terminal SNAP kept (SNAP-Surface 488); label: 3' end held by stalled T7 RNA polymerase.
B1 was tested, and the Kd was 9.2 ± 2 nM.
Work on B2 yielded a Kd of 21 ± 4 nM.
In the case of B3, the Kd is reported as 5.2 ± 0.4 nM.
B4 was tested, and the Kd was 3.8 ± 0.6 nM.
B5 showed a Kd of 10.5 ± 0.9 nM.
B6 was tested, and the Kd was 5.4 ± 1.2 nM.
For B7, the Kd was 16 ± 1.8 nM.
B8 showed a Kd of 11.4 ± 2.3 nM.
For B9, the Kd was 9 ± 2.5 nM.
Work on B10 yielded a Kd of 9.5 ± 1.9 nM.
B11 gave a Kd of 7.4 ± 0.7 nM.
With B12 the Kd was 8 ± 0.8 nM.
B13 gave a Kd of 5.8 ± 0.8 nM.
Work on B14 yielded a Kd of 4.9 ± 0.9 nM.
B15 was tested, and the Kd was 5.2 ± 0.6 nM.
Work on B16 yielded a Kd of 6.1 ± 0.7 nM.
Work on B17 yielded a Kd of 5.6 ± 0.5 nM.
B18 was tested, and the Kd was 10.7 ± 2.4 nM.
B19 showed a Kd of 9.2 ± 2.1 nM.
B20 gave a Kd of 7.6 ± 1.8 nM.
B21 gave a Kd of 2.68 ± 0.29 nM.
With B22 the Kd was 7.3 ± 0.7 nM.
B23 showed a Kd of 4.8 ± 0.5 nM.
B24 gave a Kd of 3.3 ± 0.7 nM.
B25 showed a Kd of 29 ± 8 nM.
Binder B26 has a Kd of 17.8 ± 1.7 nM.
Work on B27 yielded a Kd of 36 ± 5 nM.
B28 showed a Kd of 23.9 ± 3.1 nM.
Work on B29 yielded a Kd of 6.2 ± 0.8 nM.
In the case of B30, the Kd is reported as 13.4 ± 1.7 nM.
Binder B31 has a Kd of 18.2 ± 1.8 nM.
Binder B32 has a Kd of 4.7 ± 0.8 nM.
In the case of B33, the Kd is reported as ~40 nM.
Work on B34 yielded a Kd of 2.5 ± 0.5 nM.
In the case of B35, the Kd is reported as 2.3 ± 0.6 nM.
Work on B36 yielded a Kd of 14.3 ± 3.1 nM.
For B37, the Kd was 2.32 ± 0.34 nM.
With B38 the Kd was ~4.3 nM.

— paper PMC10786891, “Massively parallel profiling of RNA-targeting CRISPR-Cas13d”
